Assay results: patent US20210340231A1 (FAPON BIOTECH, published 2021)
Read-outs that look alike come from different tables or passages of the source.

Experiments:
[1] = biological target: T1, CTNI quality control recombinant protein (PK2-CTNI-1, 170120, produced by the applicant) (human, UniProt P19429 2-210, limits assumed); assay: AMC sensor kinetics, antibody captured, cTnI analyte
T1 construct: also called cardiac troponin I

[2] = biological target: T1, CTNI quality control recombinant …; assay: indirect ELISA, cTnI coated 1 ug/ml, antibody 1.6 ug/ml
Procedure: (§1) The cTnI quality control after diluted to 1 μg/ml with the coating solution was used for microplate coating at 100 uL per well and left at 4° C. overnight. The next day, the microplate was washed twice with the wash solution and tapped for drying. The blocking solution (20% BSA+80% PBS) was added at 120 μL per well and left for 1 h at 37° C., and the microplate was tapped for drying. The diluted cTn monoclonal antibody was added at 100 μL per well and left for 30 min at 37° C.; then the microplate was washed 5 times with the wash solution and tapped for drying. The goat anti-mouse IgG-HRP was added at 100 μL per well and left for 30 min at 37° C.; then the microplate was washed 5 times with the wash solution and tapped for drying. Colour-developing solution A was added at 50 μL per well, followed by colour-developing solution B at 50 μL per well; the mixed solution was left for 10 min; and stopping solution was added at 50 μL per well. The OD value was read out at 450 nm (reference at 630 nm) on the microplate reader.

[3] = biological target: T1, CTNI quality control recombinant …; assay: indirect ELISA, cTnI coated 1 ug/ml, antibody 0 ug/ml (blank)
Procedure: as §1

[4] = biological target: T1, CTNI quality control recombinant …; assay: indirect ELISA, cTnI coated 1 ug/ml, antibody 8 ug/ml
Procedure: as §1

[5] = biological target: T1, CTNI quality control recombinant …; assay: indirect ELISA, cTnI coated 1 ug/ml, antibody 0.32 ug/ml
Procedure: as §1

[6] = biological target: T1, CTNI quality control recombinant …; assay: indirect ELISA, cTnI coated 1 ug/ml, antibody 1000 ug/ml
Procedure: as §1

[7] = biological target: T1, CTNI quality control recombinant …; assay: AMC sensor kinetics, antibody captured, cTnI analyte; remark: listed apart in the source
Procedure: Using the AMC sensor, the purified antibody was diluted with PBST to 10 μg/ml, and the CTNI quality control recombinant protein (PK2-CTNI-1, 170120, produced by the applicant) was serially diluted with PBST to 400 nmol/ml, 200 nmol/ml, 100 nmol/ml, 50 nmol/ml, 25 nmol/ml, 12.5 nmol/ml, 6.25 nmol/ml, and 0 nmol/ml.

[8] = biological target: T1, CTNI quality control recombinant …; assay: indirect ELISA, cTnI coated 1 ug/ml, antibody 40 ug/ml
Procedure: as §1

[9] = biological target: T1, CTNI quality control recombinant …; assay: indirect ELISA, cTnI coated 1 ug/ml, antibody 200 ug/ml
Procedure: as §1

T1 sequence (P19429 2-210 limits assumed): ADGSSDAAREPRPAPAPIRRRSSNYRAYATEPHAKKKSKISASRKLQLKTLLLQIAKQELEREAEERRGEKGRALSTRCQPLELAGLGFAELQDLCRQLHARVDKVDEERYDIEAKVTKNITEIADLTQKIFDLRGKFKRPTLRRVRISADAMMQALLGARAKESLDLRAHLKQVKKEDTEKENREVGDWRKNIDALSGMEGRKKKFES

Binder | Kd [1] | koff [1] | kon [1] | OD 450 nm (reference 630 nm) [2] | OD 450 nm (reference 630 nm) [3] | OD 450 nm (reference 630 nm) [4] | OD 450 nm (reference 630 nm) [5] | OD 450 nm (reference 630 nm) [6] | Kd [7] | koff [7] | kon [7] | OD 450 nm (reference 630 nm) [8] | OD 450 nm (reference 630 nm) [9]
WT 1-50 (antibody, V domains shown, Built as for Mutation 1) VH: EVQLQQSGAELVKPGASVKLSCTASGFNLKEYYMHWMKQRTEQGLDWIGRIEPEDGETRYAPEFQGKATITADTSSNTAYLQLSTLTSEDTAVYYCARYYTSYLPFVYWGQGTLVTASA VL: DVVMTQTPLSLSVSLGDQASISCRSSQSLIYSNKHTYLHWYLQKPGQSPKLLIFQLSQRFSGVPDRFSGSGSGTDFTLKINRVEAEDLGVYFCSNSTHLPYTFGSGTKLEIKR | 0.702 nM | 0.000489 s⁻¹ | 696000 M⁻¹ s⁻¹ |  |  |  |  |  |  |  |  |  | 
Mutation 4 (antibody, V domains shown, built as for Mutation 1) VH: EVQLQQSGAELVKPGASVKLSCTASGFNLKDYFMHWMKQRTEQGLDWIGRIEPEDAETRYAPEFQGKATITADTSSNTAYLQLSTLTSEDTAVYYCARYYSSYIPFVYWGQGTLVTASA VL: DVVMTQTPLSLSVSLGDQASISCRSSQSIIYSNKHTYLHWYLQKPGQSPKLLIFQISNRFSGVPDRFSGSGSGTDFTLKINRVEAEDLGVYFCSNSTHLPFTFGSGTKLEIKR |  |  |  | 0.689 OD | 0.03 OD | 1.75 OD | 0.314 OD | 2.22 OD |  |  |  | 1.98 OD | 2.15 OD
Mutation 3 (antibody, V domains shown, built as for Mutation 1) VH: EVQLQQSGAELVKPGASVKLSCTASGFNLKEYFMHWMKQRTEQGLDWIGRIDPEDAETRYAPEFQGKATITADTSSNTAYLQLSTLTSEDTAVYYCARYYTSYIPFVYWGQGTLVTASA VL: DVVMTQTPLSLSVSLGDQASISCRSSQSIIYSNRHTYLHWYLQKPGQSPKLLIFQISQRFSGVPDRFSGSGSGTDFTLKINRVEAEDLGVYFCSQSTHLPFTFGSGTKLEIKR |  |  |  | 0.831 OD | 0.028 OD | 1.86 OD | 0.301 OD | 2.35 OD |  |  |  | 2.25 OD | 2.37 OD
WT 1-3 (antibody, V domains shown, built as for Mutation 1) VH: EVQLQQSGAELVKPGASVKLSCTASGFNIKEYYMHWMKQRTEQGLDWIGRIEPEDGETKYAPEFQGKATITADTSSNTAYLQLSTLTSEDTAVYYCARYYTSYLPFVYWGQGTLVTASA VL: DVVMTQTPLSLSVSLGDQASISCRSSQSLLYSNKHTYLHWYLQKPGQSPKLLIFQLSQRFSGVPDRFSGSGSGTDFTLKINRVEAEDLGVYFCSNSTHIPYTFGSGTKLEIKR | 0.549 nM | 0.000348 s⁻¹ | 633000 M⁻¹ s⁻¹ |  |  |  |  |  |  |  |  |  | 
WT 1-29 (antibody, V domains shown, built as for Mutation 1) VH: EVQLQQSGAELVKPGASVKLSCTASGFNLKEYYMHWMKQRTEQGLDWIGRIEPEDGETKYAPEFQGKATITADTSSNTAYLQLSTLTSEDTAVYYCARYYTSYVPFVYWGQGTLVTASA VL: DVVMTQTPLSLSVSLGDQASISCRSSQSLLYSNKHTYLHWYLQKPGQSPKLLIFQVSQRFSGVPDRFSGSGSGTDFTLKINRVEAEDLGVYFCSNSTHLPYTFGSGTKLEIKR | 1.23 nM | 0.00011 s⁻¹ | 89600 M⁻¹ s⁻¹ |  |  |  |  |  |  |  |  |  | 
WT 1-14 (antibody, V domains shown, built as for Mutation 1) VH: EVQLQQSGAELVKPGASVKLSCTASGFNIKEYFMHWMKQRTEQGLDWIGRIEPEDAETKYAPEFQGKATITADTSSNTAYLQLSTLTSEDTAVYYCARYYTSYIPFVYWGQGTLVTASA VL: DVVMTQTPLSLSVSLGDQASISCRSSQSLLYSNKHTYLHWYLQKPGQSPKLLIFQISQRFSGVPDRFSGSGSGTDFTLKINRVEAEDLGVYFCSNSTHIPFTFGSGTKLEIKR | 0.749 nM | 0.000398 s⁻¹ | 532000 M⁻¹ s⁻¹ |  |  |  |  |  |  |  |  |  | 

Results, then the binder that gave them:

Kd [1] | koff [1] | kon [1] | OD 450 nm (reference 630 nm) [2] | OD 450 nm (reference 630 nm) [3] | OD 450 nm (reference 630 nm) [4] | OD 450 nm (reference 630 nm) [5] | OD 450 nm (reference 630 nm) [6] | Kd [7] | koff [7] | kon [7] | OD 450 nm (reference 630 nm) [8] | OD 450 nm (reference 630 nm) [9] | Binder
 |  |  | 0.973 OD | 0.032 OD | 2.07 OD | 0.341 OD | 2.4 OD | 0.751 nM | 0.000155 s⁻¹ | 206000 M⁻¹ s⁻¹ | 2.35 OD | 2.4 OD | Mutation 1 (antibody, V domains shown, No residue numbers are printed, so each chain is built as FR1-CDR1-FR2-CDR2-FR3-CDR3-FR4-constant) VH: EVQLQQSGAELVKPGASVKLSCTASGFNLKDYFMHWMKQRTEQGLDWIGRIDPEDAETRYAPEFQGKATITADTSSNTAYLQLSTLTSEDTAVYYCARYYSSYIPFVYWGQGTLVTASA VL: DVVMTQTPLSLSVSLGDQASISCRSSQSIIYSNRHTYLHWYLQKPGQSPKLLIFQISNRFSGVPDRFSGSGSGTDFTLKINRVEAEDLGVYFCSQSTHLPFTFGSGTKLEIKR
 |  |  | 0.724 OD | 0.04 OD | 1.8 OD | 0.233 OD | 2.38 OD |  |  |  | 2.3 OD | 2.42 OD | Mutation 2 (antibody, V domains shown, built as for Mutation 1) VH: EVQLQQSGAELVKPGASVKLSCTASGFNLKEYFMHWMKQRTEQGLDWIGRIDPEDAETRYAPEFQGKATITADTSSNTAYLQLSTLTSEDTAVYYCARYYTSYIPFVYWGQGTLVTASA VL: DVVMTQTPLSLSVSLGDQASISCRSSQSIIYSNRHTYLHWYLQKPGQSPKLLIFQISNRFSGVPDRFSGSGSGTDFTLKINRVEAEDLGVYFCSQSTHLPFTFGSGTKLEIKR
 |  |  | 0.721 OD | 0.042 OD | 1.69 OD | 0.189 OD | 2.2 OD |  |  |  | 1.94 OD | 2.2 OD | Mutation 5 (antibody, V domains shown, built as for Mutation 1) VH: EVQLQQSGAELVKPGASVKLSCTASGFNLKDYFMHWMKQRTEQGLDWIGRIEPEDAETRYAPEFQGKATITADTSSNTAYLQLSTLTSEDTAVYYCARYYSSYIPFVYWGQGTLVTASA VL: DVVMTQTPLSLSVSLGDQASISCRSSQSIIYSNKHTYLHWYLQKPGQSPKLLIFQISQRFSGVPDRFSGSGSGTDFTLKINRVEAEDLGVYFCSNSTHLPFTFGSGTKLEIKR
